From paper PMC10090020 come the findings set out here.

The assay concerns the target mCherry-CARACB(G15V) (barley (Hordeum vulgare)). The experiment in a line: FRET or BRET; FLIM-FRET in barley epidermal cells transiently co-expressing meGFP-RIC157 (donor) and mCherry-RACB forms (acceptor) after particle bombardment; meGFP lifetime measured at the equatorial plane; at least 10 cells per interaction in two replicates.

In turn, meGFP-RIC157 (natural protein) registered a meGFP fluorescence lifetime of 2.2 ns.
